Biological target: T1, human LAT1/CD98 complex (human, UniProt Q01650 1-507; P08195 2-529)
T1 construct: whole, on cells; Disulfide-bonded heterodimer, endogenous on human tumor cell lines (HCT116, NCI-H1944, A549, HeLa); No purified or transfected antigen was used; also called LAT1/CD98 complex protein; LAT1/4F2hc
Experiment: flow cytometry on human tumor cell lines, antibody prepared at 40 µg/mL; reference LGtra01-01
Procedure: Using four types of human tumor cell lines, the anti-LAT1/CD98 monoclonal antibodies were measured for their binding ability by FCM analysis. The human tumor cell lines were each adjusted with PBS to 1×10⁵ cells/well and dispensed into tubes in 50 μL volumes. To this cell suspension, 50 μL of each monoclonal antibody prepared at 40 μg/mL was added and reacted at 4° C. for 45 minutes. After washing three times by addition of 0.1% BSA-PBS (100 μL) and the subsequent centrifugation at 500 g for 3 minutes at 4° C., the cell pellets were each supplemented with 50 μL of 200-fold diluted PE-labeled anti-rat IgG (Jackson Immuno Research) and reacted under light-shielded conditions at 4° C. for 45 minutes. After washing three times by addition of 0.1% BSA-PBS (100 μL) and the subsequent centrifugation at 500 g for 3 minutes at 4° C., the cells were suspended in PBS (500 μL) and then transferred to FCM tubes. PI (100 μL) was added immediately before measurement to remove dead cells, followed by measurement with a FACS calibur (Becton Dickinson).

T1 sequence (Q01650 whole entry, chain 1 of 2): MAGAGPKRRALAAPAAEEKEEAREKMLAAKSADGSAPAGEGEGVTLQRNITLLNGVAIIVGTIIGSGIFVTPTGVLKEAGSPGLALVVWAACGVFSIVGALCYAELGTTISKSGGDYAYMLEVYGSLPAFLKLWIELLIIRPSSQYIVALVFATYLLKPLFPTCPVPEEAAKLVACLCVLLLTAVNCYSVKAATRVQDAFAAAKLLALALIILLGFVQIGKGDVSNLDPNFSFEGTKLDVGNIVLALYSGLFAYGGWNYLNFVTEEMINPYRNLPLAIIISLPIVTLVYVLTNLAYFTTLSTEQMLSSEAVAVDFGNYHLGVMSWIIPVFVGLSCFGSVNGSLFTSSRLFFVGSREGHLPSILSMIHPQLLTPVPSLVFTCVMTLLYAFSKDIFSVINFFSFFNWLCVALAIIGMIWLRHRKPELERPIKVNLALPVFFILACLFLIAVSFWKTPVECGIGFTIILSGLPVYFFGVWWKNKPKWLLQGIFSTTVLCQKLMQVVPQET
T1 sequence (P08195 103-630, chain 2 of 2): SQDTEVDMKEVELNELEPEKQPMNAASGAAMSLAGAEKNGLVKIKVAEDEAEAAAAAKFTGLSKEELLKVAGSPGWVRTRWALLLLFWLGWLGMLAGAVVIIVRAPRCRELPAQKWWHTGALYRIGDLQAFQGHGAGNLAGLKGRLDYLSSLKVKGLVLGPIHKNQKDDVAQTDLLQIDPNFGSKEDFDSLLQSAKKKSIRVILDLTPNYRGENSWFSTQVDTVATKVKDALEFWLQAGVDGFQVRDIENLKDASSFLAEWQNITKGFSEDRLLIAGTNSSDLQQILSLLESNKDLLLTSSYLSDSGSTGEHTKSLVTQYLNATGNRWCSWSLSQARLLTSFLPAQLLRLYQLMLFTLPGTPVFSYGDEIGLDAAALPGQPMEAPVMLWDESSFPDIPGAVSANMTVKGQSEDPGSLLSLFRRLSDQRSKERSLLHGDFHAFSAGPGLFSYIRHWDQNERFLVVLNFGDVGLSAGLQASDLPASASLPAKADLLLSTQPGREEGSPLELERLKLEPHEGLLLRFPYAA

fold higher binding activity than LGtra01-01 monoclonal antibody	Binder
≥ 10 fold	LG9112 monoclonal antibody (antibody, V domains shown, Rat monoclonal antibody from a hybridoma, purified from ascites with Protein G and detected with anti-rat IgG; also called anti-LAT1/CD98 monoclonal antibody) VH: QMQLKESGPGLVQPSQTLSLTCAVSGFSLPTSSVSWIRQSPGKGLEWMGVIWSNGNTDYSSRFKSRLSISRDTAKSQVFLKMNSLQAEDTAMYFCARNFRNDPGVMDAWGQGASVTVSS VL: NIVMTQSPKSMSISVGDRVTMNCKASQNVGNNVAWYQQKPGLSPKLLISYASSRHTGVPDRFTGRGSGADFTLTINGVQAEDAAFYYCQRVYKSPYTFGGGTKLELKR
≥ 10 fold	LG9111 monoclonal antibody (antibody, V domains shown, Rat monoclonal antibody from a hybridoma, purified from ascites with Protein G and detected with anti-rat IgG; also called anti-LAT1/CD98 monoclonal antibody) VH: QLQLKESGPGLVQPSQTLSLTCTVSGFSLPTSSVSWIRQPPGKGLEWMGVIWSNGNTDYSSAIKSRLSISRDTSKSQVFLKMNSLQTEDTARYFCARNFRNDPGVMDAWGQGASVTVSS VL: NIVMTQSPRSMSLSGGDRVTMNCRASQNVGNNVAWYQQRPGQSPKLLISYASNRNTGVPGRFTGSGSGTDFTLTISSVQAEDAAFYYCQRIYKSPYTFGGGTKLELKR
≥ 10 fold	LG9113 monoclonal antibody (antibody, V domains shown, Rat monoclonal antibody from a hybridoma, purified from ascites with Protein G and detected with anti-rat IgG; also called anti-LAT1/CD98 monoclonal antibody) VH: QMQLKESGPGLVQPSQTLSLTCAVSGFSLPTSSVSWIRQSPGKGLEWMGVIWSNGNTDYSSRFKSRLSISRDTAKSQVFLKMNSLQTEDTAMYFCARNFRNDPGVMDAWGQGASVTVSS VL: NIVMTQSPKSMSISVGDRVTMNCKASQTVGNNVAWYQQKPGLSPKLLISYASSRHTGVPDRFTGRGSGADFTLTINGVQAEDAAFYYCQRVYKSPYTFGGGTKLELKR
≥ 10 fold	LG9114 monoclonal antibody (antibody, V domains shown, Rat monoclonal antibody from a hybridoma, purified from ascites with Protein G and detected with anti-rat IgG; also called anti-LAT1/CD98 monoclonal antibody) VH: QMQLKESGPGLVQPSQTLSLTCAVSGFSLPTSSVSWIRQSPGKGLEWMGVIWSNGNTDYSSRIKSRLSISRDTSKSQVFLKMNSLQTEDTAMYFCARNFRNNPGVMDAWGQGASVTVSS VL: NIVMTQSPKSMSISVGDRVTMNCKASQNVGNNVAWYQQKPGLSPKLLIYYASSRHTGVPDRFTGSGSGADFTLTINSVQAEDAAFYYCQRVYKSPYTFGGGTKLELKR

Source: US20150147278A1 (KINKI UNIVERSITY, published 2015)
